Patent US6667173B2, “Nucleic acids encoding platelet derived growth factor-alpha receptors” (The Schepens Eye Research Institute, priority 2000, dated 2003)
Entries after “also recorded” stand apart in the source; their conditions may differ.

B1: F7: αPDGFR mutant, Tyr to Phe substitution at 572, 574, 720, 731, 742, 988, and 1018 (protein, UniProt P16234 24-1089, looked up, variant Y572F Y574F Y720F Y731F Y742F Y988F Y1018F)
Platelet-derived growth …: QLSLPSILPNENEKVVQLNSSFSLRCFGESEVSWQYPMSEEESSDVEIRNEENNSGLFVTVLEVSSASAAHTGLYTCYYNHTQTEENELEGRHIYIYVPDPDVAFVPLGMTDYLVIVEDDDSAIIPCRTTDPETPVTLHNSEGVVPASYDSRQGFNGTFTVGPYICEATVKGKKFQTIPFNVYALKATSELDLEMEALKTVYKSGETIVVTCAVFNNEVVDLQWTYPGEVKGKGITMLEEIKVPSIKLVYTLTVPEATVKDSGDYECAARQATREVKEMKKVTISVHEKGFIEIKPTFSQLEAVNLHEVKHFVVEVRAYPPPRISWLKNNLTLIENLTEITTDVEKIQEIRYRSKLKLIRAKEEDSGHYTIVAQNEDAVKSYTFELLTQVPSSILDLVDDHHGSTGGQTVRCTAEGTPLPDIEWMICKDIKKCNNETSWTILANNVSNIITEIHSRDRSTVEGRVTFAKVEETIAVRCLAKNLLGAENRELKLVAPTLRSELTVAAAVLVLLVIVIISLIVLVVIWKQKPRYEIRWRVIESISPDGHEFIFVDPMQLPYDSRWEFPRDGLVLGRVLGSGAFGKVVEGTAYGLSRSQPVMKVAVKMLKPTARSSEKQALMSELKIMTHLGPHLNIVNLLGACTKSGPIYIITEYCFYGDLVNYLHKNRDSFLSHHPEKPKKELDIFGLNPADESTRSFVILSFENNGDFMDMKQADTTQFVPMLERKEVSKYSDIQRSLYDRPASYKKKSMLDSEVKNLLSDDNSEGLTLLDLLSFTYQVARGMEFLASKNCVHRDLAARNVLLAQGKIVKICDFGLARDIMHDSNYVSKGSTFLPVKWMAPESIFDNLYTTLSDVWSYGILLWEIFSLGGTPYPGMMVDSTFYNKIKSGYRMAKPDHATSEVYEIMVKCWNSEPEKRPSFYHLSEIVENLLPGQYKKSYEKIHLDFLKSDHPAVARMRVDSDNAFIGVTYKNEEDKLKDWEGGLDEQRLSADSGFIIPLPDIDPVPEEEDLGKRNRHSSQTSEESAIETGSSSSTFIKREDETIEDIDMMDDIGIDSSDLVEDSFL

Assays:
[1] = tested on: PI3K (p85); assay: Co-immunoprecipitation of the regulatory subunit of PI3K (p85) with αPDGFR mutants in F cells; assay type: cell-based, mouse; conditions: 50 ng/ml PDGF-BB, 5 minutes
Experimental: (§1) The ability of the αPDGFR mutants to undergo ligand dependent tyrosine phosphorylation and to associate with signaling enzymes was then tested. F cells expressing various αPDGFR mutants were grown to subconfluence and serum starved overnight. Cells were either left resting (−) or stimulated with 50 ng/ml PDGF-BB (+) for 5 minutes, and lysed. The αPDGFR was immunoprecipitated with αPDGFR antibody, as described above, and the resulting immunoprecipitates were resolved by 7.5% SDS-PAGE and transferred onto Immobilon. The segment of the blot containing the αPDGFR was first blotted with anti-phosphotyrosine antibodies, then stripped and reprobed with an anti-αPDGFR antibody. Portions of the membrane that contained the proteins of the appropriate molecular mass were immunoblotted for PLCγ, the regulatory subunit of PI3K (p85), or SHP-2. Crude rabbit anti-p85 antibody is from Dr. A. Toker (Beth Israel Hospital/Harvard Medical School, Boston, Mass.). The monoclonal antibodies against PLCγ and SHP-2 were purchased from Upstate Biotechnology Inc.

[2] = tested on: SHP-2; assay: Co-immunoprecipitation of SHP-2 with αPDGFR mutants in F cells; assay type: cell-based, mouse; conditions: 50 ng/ml PDGF-BB, 5 minutes
Experimental: as §1

[3] = tested on: GST-PLCγ; assay: In vitro kinase assay of immunoprecipitated mutant αPDGFRs with exogenous substrate; assay type: biochemical; conditions: 292 immunoprecipitates, [32P]-γ ATP, 30° C., 5 min
Experimental: Mutant αPDGFRs were selectively immunoprecipitated with the 292 antibody, and samples representing 2×10^5 cells from 292 antibodies were subjected to an in vitro kinase assay. Immunoprecipitates were preincubated with 2 μg of GST protein for 10 min at 0° C., then 2 μg of Glutathione S-transferase fusion phospholipase C-gamma (GST-PLCγ, an exogenous substrate, 10 μCi of γ-[^32P] ATP (DuPont NEN Research Products, Boston, Mass.), and universal kinase buffer (UKB; 20 mM Pipes, pH 7.0, 10 mM MnCl2, 20 μg/ml aprotinin) were added. The samples were incubated at 30° C. for 5 min. The proteins were separated by 7.5% sodium dodecyl sulfate-polyacrylamide gel electrophoresis (SDS-PAGE), the gel was dried, and the radiolabeled protein was detected by autoradiography.

[4] = tested on: PLCγ; assay: Co-immunoprecipitation of PLCγ with αPDGFR mutants in F cells; assay type: cell-based, mouse; conditions: 50 ng/ml PDGF-BB, 5 minutes
Experimental: as §1

[5] = tested on: rabbit eyes; assay: Rabbit PVR model: F cells expressing αPDGFR mutants injected into the vitreous; assay type: in vivo; conditions: for potential to induce PVR (PVR score): up to 28 days after the surgery
Experimental: PVR was induced in the rabbit eyes as previously described (Andrews, A. et al. (1999) Invest. Ophthalmol. Vis. Sci. 40:2683 and Nakagawa, M. et al. (1995) Invest. Ophthalmol. Vis. Sci. 36:2388). Briefly, gas vitrectomy was performed by injecting 0.4 ml of expanding perfluoropropane gas (C3F8) into the vitreous cavity 4 mm posterior to the corneal limbus under anesthetical condition. Three days later, the rabbits were anesthetized and the pupils were dilated. 0.1 ml DMEM containing 1×10^5 of RCFs expressing empty vector or αPDGFR mutant were injected into the vitreous cavity together with 0.1 ml of PRP using 30 G needle. Ten rabbits underwent surgery for each cell population expressing the empty vector or the truncated, E587K, T665M, D818N, or V859M αPDGFR mutants. One rabbit in the D818N group died just after the surgery, therefore the total number is 9 for this group. The retinal status was evaluated with an indirect ophthalmoscope fitted with a +30 D fundus lens at 1, 4, 7, 14, 21, and 28 days after the surgery. The PVR was graded from 0 through 5 according to the Fastenberg score. Fastenberg, D. M. et al. (1982) Am. J. Ophthalmol. 93:565. The grading is as follows: 0; no abnormality, 1; vitreous strand, 2; traction of the retina, 3; partial retinal detachment (less than 2 quadrant), 4; extended (more than 2 quadrant) but not total retinal detachment, 5; total retinal detachment. All surgeries were performed under aseptic conditions and pursuant to the regulation of the ARVO Statement for the Use of Animals in Ophthalmic and Vision Research. Only the left eye of each rabbit was used for the experiments.
An important component of PVR is the traction force that is generated when cells of the epiretinal membrane contract. To test if the signaling enzymes that are required for contraction in the in vitro assays also participate in PVR, the cells expressing the various αPDGFR mutants, described in the previous Examples, were assayed in a rabbit PVR model, described above. In this model, rabbits first undergo gas vitrectomy, and then cells are coinjected with […]. The formation of an epiretinal membrane and retinal detachment is observed in living animals over 28 days.
Briefly, PVR was induced by introducing F cells expressing the indicated αPDGFR into the vitreous of the rabbit eyes. The PVR score was evaluated up to 28 days after the surgery according to the classification described above. The mean value and standard error of the scores in a group were indicated. Each group contained 9 or 10 rabbits; the response to parental F cells was previously reported (Andrews et al., supra), and was included here for comparison purposes.

[6] = tested on: PI3K; assay: In vitro PI3K activity assay of αPDGFR immunoprecipitates; assay type: biochemical, mouse; conditions: immunoprecipitates of F cells ± 50 ng/ml PDGF-BB
Experimental: To measure the PI3K activity that coprecipitated with the PDGFRs, the receptor immunoprecipitates were subjected to an in vitro PI3K kinase assay. Aliquots of the immunoprecipitates used in FIG. 10B were subjected to a PI3K activity assay. This assay detects PI3K that has co-precipitated with the αPDGFR. The PI3K assay was performed as previously described. Kazlauskas, A. et al. (1990) Embo. J. 9:3279. Briefly, immunoprecipitated αPDGFR from approximately 5×10^5 cells were incubated with phosphatidyl inositol in the presence of [^32P]-γATP. The reactions were terminated and the phospholipids were extracted and purified by chromatography. The radioactive product of the reaction (phosphoinositide 3 phosphate) was detected by autoradiography.

[7] = tested on: F cells; assay: Collagen gel contraction assay of F cells expressing αPDGFR mutants; assay type: cell-based, mouse; conditions: PDGF-BB (50 ng/ml), 48 hours
Experimental: The contraction assay was based on a previously described reference, Skuta, G. et al. (1999) J. Biol. Chem. 274:30163, with the following modifications. Fα cells were suspended in 1.5 mg/ml of neutralized collagen I (Cohesion vitrogen 100, Palo Alto, Calif.) at a density of 10^6 cells/ml, and were transferred into the 24-well plate (Falcon, Franklyn Lakes, N.J.) that had been preincubated with phosphate-buffer saline (PBS) with 5 mg/ml of bovine serum albumin (BSA) overnight. The gel was solidified by incubating at 37° C. for 90 minutes, and then the well was flooded with DMEM+5 mg/ml of BSA supplemented with an amount of vitreous such that the final concentration of vitreous in the culture medium was 1, 5 or 20%. The gels were incubated at 37° C. with 5% CO2. The initial gel diameter was 15 mm. The media was replaced every 24 hours and the gel diameter was measured after 48 hours. The extent of contraction was calculated by subtracting the diameter of the well at 48 hours from the initial diameter (15 mm). Each experimental condition was assayed in triplicate, and at least three independent experiments were performed. Unpaired t-test was performed to detect statistic difference in contraction assay.
To determine the signaling pathways that drive contraction, cells expressing the αPDGFR mutants were subjected to the collagen gel contraction assay described above. Accordingly, F cells expressing the indicated αPDGFRs were subjected to the collagen gel assay in the presence of buffer, PDGF-BB (50 ng/ml), TGFβ1 (1 ng/ml), or FBS (10%). The data presented are the mean±standard deviation measured at the 48 hours time point. Each experimental condition was assayed in triplicate, and at least 3 independent experiments were performed.

[8] = tested on: αPDGFR; assay: Ligand-dependent tyrosine phosphorylation of αPDGFR mutants in F cells; assay type: cell-based, human; conditions: 50 ng/ml PDGF-BB, 5 minutes
Experimental: as §1

[9] = tested on: αPDGFR; conditions: cited from earlier work
[10] = tested on: Src family kinases; conditions: cited from earlier work

Molecule | recruitment of PI3K / p85 (Properties) [1] | recruitment of SHP-2 (Properties) [2] | kinase activity towards exogenous substrate GST-PLCγ [3] | recruitment or activation of PLCγ (Properties) [4] | time until PVR after injection of cells ([5]; rabbit, in vivo) | PI3K activity coprecipitating with the receptor [6] | PDGF-dependent contraction [7] | PDGF-dependent tyrosine phosphorylation of the receptor [8] | kinase activity of the receptor (Properties) [9] | potential to induce PVR (PVR score) [5] | recruitment or activation of Src family kinases (Properties) [10]
WT αPDGFR: wild type human αPDGFR, SEQ ID NO: 2, expressed in F cells (Fα cells) | coprecipitated | coprecipitated | phosphorylated the exogenous substrate | coprecipitated | 2-3 weeks | coprecipitated | contracted | – | – | – | –
F31/42: αPDGFR mutant, Tyr to Phe substitution at 731 and 742 | failed to efficiently associate; also recorded: Fails to recruit PI3K | – | – | – | – | did not detectably coprecipitate | did not respond | – | – | – | –
R627: αPDGFR mutant, Lys to Arg substitution at 627, kinase inactive | failed to recruit any of these signaling enzymes | failed to recruit any of these signaling enzymes | – | failed to recruit any of these signaling enzymes | – | – | no contraction | not phosphorylated in response to PDGF | Kinase inactive | dramatically less able to cause the disease | –
B1 | failed to recruit any of these signaling enzymes; also recorded: Fails to recruit | failed to recruit any of these signaling enzymes; also recorded: Fails to recruit | – | failed to recruit any of these signaling enzymes; also recorded: Fails to recruit | – | – | no contraction | undergoes modest tyrosine phosphorylation | kinase active | dramatically less able to cause the disease | Fails to recruit
